Test [1] deals with T1, recombinant E. coli-expressed human IL-4 (human, UniProt P05112 25-153).
T1 construct: made and purified at GSK; also called Interleukin-4; rhIL-4
T1 sequence: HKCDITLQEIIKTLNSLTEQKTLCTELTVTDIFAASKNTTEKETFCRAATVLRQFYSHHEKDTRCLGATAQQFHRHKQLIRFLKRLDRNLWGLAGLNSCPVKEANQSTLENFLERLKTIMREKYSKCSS
The experiment in a line: SPR.

The target of test [2] is T2, recombinant E. coli-expressed human IL-13 (human, UniProt P35225 35-146).
T2 construct: made and purified at GSK; also called Interleukin-13; rhIL-13
Nature of the test: SPR.

For test [3], the target named is T1, recombinant E. coli-expressed human IL-4. The experiment in a line: SPR, positive dissociation.
Test [4] addresses T3, recombinant E. coli-expressed cynomolgus IL-4 (cynomolgus, UniProt P79339 25-153).
T3 construct: also called cyno IL-4
T3 sequence (looked up): T1 sequence with E26K, V29I, F33L
The experiment in a line: SPR.

The target of test [5] is T4, recombinant E. coli-expressed cynomolgus IL-13 (cynomolgus, UniProt Q0PW92 21-132).
T4 construct: also called cyno IL-13
Nature of the test: SPR.

The target of test [6] is T2, recombinant E. coli-expressed human …. Nature of the test: SPR exp 2.
Test [7] has as its target T1, recombinant E. coli-expressed human IL-4. The experiment in a line: SPR exp 2.
The target in test [8] is T2, recombinant E. coli-expressed human …. Nature of the test: SPR exp 1.
Test [9] concerns the target T3, recombinant E. coli-expressed …. The experiment in a line: cell-based or functional assay.
Test [10] addresses T2, recombinant E. coli-expressed human …. Nature of the test: cell-based or functional assay.
Test [11] has as its target T1, recombinant E. coli-expressed human IL-4. The experiment in a line: cell-based or functional assay.
Test [12] addresses T4, recombinant E. coli-expressed …. Nature of the test: cell-based or functional assay.
The target in test [13] is T2, recombinant E. coli-expressed human …. Nature of the test: ELISA, IL-13 binding to IL13Ralpha2/Fc.
Test [14] deals with T1, recombinant E. coli-expressed human IL-4. The experiment in a line: ELISA, IL-4 binding to IL4Ralpha-Fc.
In test [15] the target is T2, recombinant E. coli-expressed human …. Nature of the test: SPR. This is another data set of the same source.
Test [16] shares this target. Nature of the test: SPR, human IL-4 bound first.
The target is the same in test [17]. Nature of the test: cell-based or functional assay. This is another data set of the same source.
The target of test [18] is T1, recombinant E. coli-expressed human IL-4. The experiment in a line: cell-based or functional assay. This is another data set of the same source.
The target of test [19] is T2, recombinant E. coli-expressed human …. Nature of the test: SPR, no IL-4 bound.
Test [20] concerns the target T4, recombinant E. coli-expressed …. Nature of the test: SPR. The source holds these as a separate data set.
Test [21] concerns the target T2, recombinant E. coli-expressed human …. Nature of the test: SPR exp 1. The source holds these as a separate data set.
The target in test [22] is T1, recombinant E. coli-expressed human IL-4. Nature of the test: SPR exp 1.
For test [23], the target named is T2, recombinant E. coli-expressed human …. Nature of the test: SPR exp 2. The source holds these as a separate data set.
Test [24] deals with T1, recombinant E. coli-expressed human IL-4. The experiment in a line: SPR exp 2. The source holds these as a separate data set.
The target of test [25] is T2, recombinant E. coli-expressed human …. The experiment in a line: cell-based or functional assay. The source holds these as a separate data set.
Test [26] concerns the target T4, recombinant E. coli-expressed …. The experiment in a line: cell-based or functional assay. The source holds these as a separate data set.

This is an account of results in patent US20110008345A1 (GlaxoSmithKline, published 2011).

Where a chain is given by its changes, count along the chain named. Where two headings read alike, the source gives them in different places.

B1: 586H-TVAAPS-147 (bispecific antibody, human IgG1, kappa)
heavy: not shown
light: DIVMTQSPLSLPVTPGEPASISCRSSQNIVHINGNTYLEWYLQKPGQSPRLLIYKISDRFSGVPDRFSGSGSGTDFTLKISRVEADDVGIYYCFQGSHVPWTFGQGTKLEIKRTVAAPSVFIFPPSDEQLKSGTASVVCLLNNFYPREAKVQWKVDNALQSGNSQESVTEQDSKDSTYSLSSTLTLSKADYEKHKVYACEVTHQGLSSPVTKSFNRGEC
On to B1, for which, in test [1], the off-rate constant (koff) was determined as 6.69e-07 s⁻¹ and the on-rate constant (kon) came to 66200 M⁻¹ s⁻¹. Further, in test [2], the equilibrium dissociation constant (Kd) is 0.56 nM. Further, the dissociation constant (Kd) in [3] worked out at 0.011 nM.

B2: PascoH-TVAAPS-474 GS removed (bispecific antibody, human IgG1, kappa)
heavy: not shown
light: DIVLTQSPSSLSASVGDRVTITCKASQSVDYDGDSYMNWYQQKPGKAPKLLIYAASNLESGIPSRFSGSGSGTDFTFTISSLQPEDIATYYCQQSNEDPPTFGQGTKVEIKRTVAAPSVFIFPPSDEQLKSGTASVVCLLNNFYPREAKVQWKVDNALQSGNSQESVTEQDSKDSTYSLSSTLTLSKADYEKHKVYACEVTHQGLSSPVTKSFNRGEC
Turning to B2, the Kd in [4] was 0.029 nM; in [5], 26.7 nM; in test [6] it was 0.305 nM; in test [7], 0.011 nM; in [8], 0.268 nM. Further, the koff in test [4] came out at 5.3e-05 s⁻¹; in test [5] it was 0.0129 s⁻¹. For the same molecule, the values for the kon in test [4] and in test [5] were 1.83e+06 M⁻¹ s⁻¹ and 483000 M⁻¹ s⁻¹, respectively. In addition, the “Mean ND50 (TF-1)” value in test [9] stood at 1.36 nM; in test [10] it was 2.11 nM; in test [11] it was 3.02 nM; in test [12], 47.9 nM. The concentration for half-maximal inhibition (IC50) in [13] worked out at 7.41 nM.

B3: PascoH-474 GS removed (bispecific antibody, human IgG1, kappa)
heavy: not shown
light: B2 light
Turning to B3, the half-maximal inhibitory concentration (IC50) worked out at 5.14 nM in test [14] and 9.58 nM in test [13]. Further, the dissociation constant Kd was found to be 0.423 nM in test [15]; 0.0342 nM in test [4]; 16.6 nM in test [5]; 0.351 nM in [6]; 0.005 nM in test [7]; 0.408 nM in test [16]. The Kd in test [8] was 0.331 nM; in test [19], 0.425 nM. The dissociation rate constant (koff) amounted to 0.000266 s⁻¹ in test [15]; 6.38e-05 s⁻¹ in test [4]; 0.011 s⁻¹ in [5]; 0.000231 s⁻¹ in test [16]; 0.000259 s⁻¹ in test [19]. Further, the kon in test [15] came out at 629000 M⁻¹ s⁻¹; in test [4] it was 1.87e+06 M⁻¹ s⁻¹; in test [5] it was 662000 M⁻¹ s⁻¹; in [16], 566000 M⁻¹ s⁻¹; in [19], 609000 M⁻¹ s⁻¹. Besides, the “Mean ND50 (TF-1)” value in [9] was found to be 1.89 nM; in test [10], 2.27 nM; in test [11], 2.85 nM; in test [12] it was 39.8 nM. In addition, the figures for the “Mean IC50 (whole blood phospho-STAT6)” value in test [17] and in [18] were 2.78 nM and 7.95 nM, respectively.

B4: PascoH-TVAAPS-616 (bispecific antibody, human IgG1, kappa)
heavy: not shown
light: B2 light
As for B4, the Kd in test [20] turned out to be 9.8 nM; in test [21] it was 0.0497 nM; in test [22] it was 0.003 nM; in [23] it was 0.056 nM; in [24], 0.005 nM. Further, the koff in test [20] came to 0.00451 s⁻¹. Further, the kon in [20] was determined as 460000 M⁻¹ s⁻¹. Moreover, the “Mean ND50 (TF-1)” value in test [25] worked out at 0.722 nM; in test [26], 14.5 nM. Also, the 50% inhibitory concentration (IC50) in [13] was 6.17 nM.

B5: PascoH-616 (bispecific antibody, human IgG1, kappa)
heavy: not shown
light: B2 light
In the case of B5, the dissociation constant (Kd) in test [20] is 5.4 nM; in test [21] it was 0.114 nM; in test [22], 0.00172 nM; in test [23], 0.15 nM. Also, in [20], the off-rate constant (koff) amounted to 0.00184 s⁻¹. Also, the on-rate (kon) in [20] is 341000 M⁻¹ s⁻¹. Also, the “Mean ND50 (TF-1)” value in [25] is 0.796 nM; in test [26], 9.23 nM. The IC50 in test [13] turned out to be 6.41 nM.
